From patent US20180030144A1 (INNATE PHARMA, published 2018)

T1: mouse CD73 expressed on a recombinant host cell line (mouse, UniProt Q61503 29-551)
T1 construct: whole, on cells; also called moCD73
T1 sequence (looked up): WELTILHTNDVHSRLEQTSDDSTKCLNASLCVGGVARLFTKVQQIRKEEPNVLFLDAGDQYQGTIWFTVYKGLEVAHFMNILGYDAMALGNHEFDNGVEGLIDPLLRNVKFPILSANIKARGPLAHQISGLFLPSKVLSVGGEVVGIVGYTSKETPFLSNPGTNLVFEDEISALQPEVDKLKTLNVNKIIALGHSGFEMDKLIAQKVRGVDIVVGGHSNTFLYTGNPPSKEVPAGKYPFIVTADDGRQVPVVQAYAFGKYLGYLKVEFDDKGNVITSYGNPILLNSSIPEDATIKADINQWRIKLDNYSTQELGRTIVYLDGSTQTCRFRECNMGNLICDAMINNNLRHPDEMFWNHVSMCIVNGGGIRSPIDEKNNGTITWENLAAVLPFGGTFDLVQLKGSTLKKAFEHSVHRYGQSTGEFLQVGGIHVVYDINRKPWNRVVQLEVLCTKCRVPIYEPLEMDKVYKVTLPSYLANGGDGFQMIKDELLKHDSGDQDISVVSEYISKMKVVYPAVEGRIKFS

T2: human CD73 expressed at the cell surface (human, UniProt P21589 27-549)
T2 construct: GPI-anchored dimer on cells; also called huCD73; cellular CD73
T2 sequence: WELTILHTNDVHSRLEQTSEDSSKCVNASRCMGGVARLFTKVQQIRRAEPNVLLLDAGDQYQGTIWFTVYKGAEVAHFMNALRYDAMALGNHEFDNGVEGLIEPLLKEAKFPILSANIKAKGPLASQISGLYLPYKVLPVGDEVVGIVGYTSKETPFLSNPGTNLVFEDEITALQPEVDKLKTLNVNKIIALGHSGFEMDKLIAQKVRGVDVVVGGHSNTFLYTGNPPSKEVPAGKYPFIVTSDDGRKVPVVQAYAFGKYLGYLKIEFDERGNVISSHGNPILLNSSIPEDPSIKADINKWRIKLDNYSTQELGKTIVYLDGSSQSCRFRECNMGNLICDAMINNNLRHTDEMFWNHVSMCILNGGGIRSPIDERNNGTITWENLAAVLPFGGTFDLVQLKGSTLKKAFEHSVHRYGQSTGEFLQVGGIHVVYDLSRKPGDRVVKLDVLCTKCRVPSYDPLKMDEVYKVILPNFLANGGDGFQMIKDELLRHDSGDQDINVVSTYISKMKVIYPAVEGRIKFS


What was measured:
[1] = biological target: T1, mouse CD73 expressed on a recombinant …; assay: flow cytometry titration on a mouse-CD73-expressing recombinant host cell line, median of fluorescence
[2] = biological target: T2, human CD73 expressed at the cell surface; assay: flow cytometry titration on HEK293T cells transfected with wild type human CD73, mean of fluorescence

| binding result [1] | EC50 (read off the curve) [2] | Binder |
| --- | --- | --- |
| no binding (tested: about 30-40 µg/ml) |  | antibody 11E1 (antibody, human IgG1, V domains shown, Produced as chimeric human IgG1 with heavy chain N297Q (Kabat EU numbering); also called 1E11) VH: EIQLQQSGPELVKPGASVKVSCKASGYAFTSYNMYWVKQSHGKSLEWIGYIDPYNGGTSYNQKFKGKATLTVDKSSSTAYMHLNSLTSEDSAVYYCARGYGNYKAWFAYWGQGTLVTVSA VL: DAVMTQTPKFLLVSAGDRVTITCKASQSVTNDVAWYQQKPGQSPKLLIYYASNRYTGVPDRFTGSGYGTDFTFTISTVQAEDLAVYFCQQDYSSLTFGAGTKLELK |
| no binding (tested: about 30 µg/ml) | ~0.2 µg/mL | antibody 3C12 (antibody, human IgG1, V domains shown, Produced as chimeric human IgG1 with heavy chain N297Q (Kabat EU numbering); RTVAAP)) VH: QIQLQQSGPELVKPGASVKVSCKASGYAFASYNMNWVKQSHGKSLDWIGYIDPYNGGSSYNLTFKGKATLTVDKSSTTAYMHLNSLTSEDSAVYYCARGYGNYKAWFAYWGQGTLVTVSA VL: DVVMTQTPKFLLVSAGDRVTITCKASQSVSNDVAWYQQKPGQSPKLLIYYASTRYTGVPDRFTGSGYGTDFTFTISTVQAEDLAVYFCQQDYSSLTFGAGTKLELKR |
| no binding (tested: about 30-40 µg/ml) |  | antibody 6E1 (antibody, human IgG1, V domains shown, Produced as chimeric human IgG1 with heavy chain N297Q (Kabat EU numbering)) VH: EFQLQQSGPELVKPGASVKVSCKASGYAFTSYNMYWVKQSHGKRLEWIGYIDPYNGGSSYNQKFKGKATLTVDKSSSTAYMHLNNLTSEDSAVYYCARGYNNYKAWFAYWGQGTLVTVSA VL: SIVMTQTPKFLLVSAGDRVTITCKASQSVTNDVAWYQQKPGQSPKLLIYYASNRYTGVPDRFTGSGYGTDFTFTISTMQAEDLAVYFCQQDYSSLTFGAGTKLELK |
